These results are taken from patent US9688719B2, “Glycogen synthase kinase-3 inhibitors” (Ramot at Tel-Aviv University Ltd., priority 2011, dated 2017).

One assay concerns pIRS-1. Kind of assay: In vitro kinase assay of GSK-3β mutants with substrate pIRS-1. In kind it is biochemical. The conditions noted are these: mean ± SEM; WT set to 100%. As to the method: (§1) HEK-293 cells were grown in Dulbecco's Modified Eagle's Medium (DMEM), supplemented with 10% fetal calf serum (FCS), 2 mM glutamine, 100 units/ml penicillin, and 100 μg/ml streptomycin. HEK-293 cells were transiently transfected with indicated constructs, using calcium phosphate method as described [Ilouz et al. (2006) supra]. Cells were lysed in ice-cold buffer G (20 mM Tris-HCl, pH 7.5, 10 mM β-glycerophosphate, 10% glycerol, 1 mM EGTA, 1 mM EDTA, 50 mM NaF, 5 mM sodium pyrophosphate, 0.5 mM orthovanadate, 1 mM benzamidine, 10 μg/ml leupeptin, 5 μg/ml aprotinin, 1 μg/ml pepstatin, and 0.5% Triton X100). Cell extracts were centrifuged for 30 minutes at 15,000×g. Supernatants were collected, and equal amounts of proteins were boiled with SDS sample buffer and subjected to gel electrophoresis (7.5-12% polyacrylamide gel), transferred to nitrocellulose membranes, and immunoblotted with indicated antibodies. For partial purification, cells were lysed in buffer H (20 mM Tris, pH 7.3, 1 mM EGTA, 1 mM EDTA, 1 mM orthovanadate, 25 μg/ml leupeptin, 25 μg/ml aprotinin, and 25 μg/ml pepstatin A, 500 nM microcystine LR, and 0.25% Triton X100). The lysates were centrifuged at 15,000×g. The resulting supernatants were passed through DE-52 (Whatman, Maidstone, England) mini-columns that were equilibrated with buffer H. GSK-3β proteins were eluted with the same buffer containing 0.02 M NaCl. Equal amounts of proteins were used for in vitro kinase assays.
(§2) The GSK-3β proteins (WT or mutants) were incubated with indicated substrate in a reaction mixture (50 mM Tris-HCl, pH 7.3, 10 mM magnesium acetate, and 0.01% β-mercaptoethanol) together with 100 μM ^32P[γ-ATP] (0.5 μCi/assay) for 15 minutes. Reactions were stopped by spotting on p81 paper (Whatman) washed with phosphoric acid, and counted for radioactivity as previously described [Ilouz et al. (2006) supra]. In assays from cells overexpressing GSK-3 proteins, the activity of the endogenous GSK-3 that was determined in cells transfected with the pCMV4 vector was subtracted from the activity values obtained for WT and mutants.
(§3) The GSK-3β mutants were partially purified by ion exchange chromatography, and their abilities to phosphorylate peptide substrates were tested in in vitro kinase assays. The substrates were: pIRS-1, p9CREB, and pGS-1, phosphorylated peptides derived from the insulin receptor substrate-1 (IRS-1), cAMP responsive element binding protein (CREB), and glycogen synthase, respectively.

The next assay has as its system p9CREB. Kind of assay: In vitro kinase assay of GSK-3β mutants with substrate p9CREB. In kind it is biochemical. The conditions noted are these: mean ± SEM; WT set to 100%. As to the method:
as §1, §2, §3

Another assay deals with pGS-1. Description: In vitro kinase assay of GSK-3β mutants with substrate pGS-1. It is filed as biochemical. The conditions noted are these: mean ± SEM; WT set to 100%. As to the method: as §1, §2, §3
For assay [1], the system named is CREB (serine 129) and N'IRS-1 (serine 332). Kind of assay: Phosphorylation of protein substrates in HEK-293 cells expressing GSK-3β WT or F93A. It is filed as cell-based. As to conditions: forskolin or PMA treated, versus WT-GSK-3β, FIGS. 1E-H. As to the method: The role of Phe93 in substrate binding by employing a cellular system and protein substrates (i.e., not peptides) was further explored. To this end, the WT-GSK-3β and F93A mutant were expressed in HEK-293 cells together with GSK-3 substrates CREB or N′IRS-1 (the N-terminal region of IRS-1). Because GSK-3 requires pre-phosphorylation of its substrates, the cells were treated with forskolin to enhance CREB phosphorylation via activation of cAMP dependent kinase (PKA), or with phorbol ester (PMA) to enhance N′IRS-1 phosphorylation via activation of protein kinase C (PKC).
The phosphorylation of CREB at serine 129, and N′IRS-1 at serine 332 (both GSK-3 phosphorylation sites) was then examined.
Thus, HEK293 cells were co-transfected with WT-GSK-3β or F93A plasmids together with construct coding for CREB. Cells were treated with forskolin (10 μM, 1 hour), and cell extracts were subjected to Western blot analysis using anti-phospho CREB (Ser 129/133) antibody, as presented in FIG. 1E. Expression levels of CREB and GSK-3 proteins are indicated. Results are means of three independent experiments ±SEM.
A similar assay was conducted using N′IRS-1 cDNA construct instead of CREB, and cells were treated with PMA (100 nM, 30 minutes). Expression levels of N′IRS-1 and GSK-3β are indicated. Results are means of three independent experiments ±SEM.

B1: F93A: GSK-3β mutant, F93 replaced by alanine (protein)
chain: MSGRPRTTSFAESCKPVQQPSAFGSMKVSRDKDGSKVTTVVATPGQGPDRPQEVSYTDTKVIGNGSFGVVYQAKLCDSGELVAIKKVLQDKRAKNRELQIMRKLDHCNIVRLRYFFYSSGEKKDEVYLNLVLDYVPETVYRVARHYSRAKQTLPVIYVKLYMYQLFRSLAYIHSFGICHRDIKPQNLLLDPDTAVLKLCDFGSAKQLVRGEPNVSYICSRYYRAPELIFGATDYTSSIDVWSAGCVLAELLLGQPIFPGDSGVDQLVEIIKVLGTPTREQIREMNPNYTEFKFPQIKAHPWTKDSSGTGHFTSGVRVFRPRTPPEAIALCSRLLEYTPTARLTPLEACAHSFFDELRDPNVKLPNGRDTPALFNFTTQELSSNPPLATILIPPHARIQAAASTPTNATAASDANTGDRGQTNNAASASASNST
modifications: GSK-3 beta, F93A mutant
notes: GSK-3β mutant, F93 replaced by alanine
Take B1: in the assay on pIRS-1, the “Substrate phosphorylation (% of WT GSK-3β), pIRS-1” value was 42 ± 13 % of WTGSK-3β. Besides, in the assay on p9CREB, the “Substrate phosphorylation (% of WT GSK-3β), p9CREB” value is given as 46 ± 2 % of WTGSK-3β. In addition, the “Substrate phosphorylation (% of WT GSK-3β), pGS-1” value in the assay on pGS-1 is 13 ± 7 % of WTGSK-3β. Also, the “phosphorylation of CREB and N'IRS-1 in cells” value in assay [1] is “did not enhance the phosphorylation”.
